In the domain aggregation screens of Martell et al. (2025):

Test: soluble fraction after stress (log2 fold change); higher = more stays soluble; pooled small domains, quantitative proteomics
Conditions: stress: 75 degC
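Further: 20 min heating vs room temperature control held 20 min.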

Sequence | soluble fraction (log2)
HMNIGIVSLAAVPMRKEPSDRAEMVNQILFGETFDVLEEQEKWTLVQLHHDAYQGWIDRKQWDYASGIAD | -1.33
HMNIIHNPSKNFIESDLNDLKEGMEIEHKKFGYGLIKSIDKTQNHQKAVVNFKLVGEKTLLLSFARLRIV | -3.15
HMNIILFLDELHRLLSDLPPEERNQAIKYYEDYFEDAGPENEQAILKELGSPQELANQIKATT | -0.94
HMNIIMLGEFIKEQRIKRKMTQEYLASELGISRPTYSQIELGTRELTIPEARKMAAIFNISLEDFLAEKE | -2.35
HMNIMNINQALNVLNLKGTVSKEELAKAYKKMAIKYHPDRNPTGVEMMKVINSAYEFLKGLNLEEIKH | 0.0759
HMNINLNVGKRLKSIRQNKELSLDEVSNLTNVSKPALAQIERGASSPTINTLWKISKGLKVPLSYFLQE | -0.713
HMNINVRNTGIKAVENNIINLSSDQRTFTWASNDRKLITVPFDENPYSALAAWFKTDEGIEVYQTIEKKL | -0.0488
HMNIWNEWAFKKWIESDEYTGPDMTDFGHRTLVDEEFSKQYKEQMSLFKERVLTDDEFSAKYGDL | -0.811
HMNKEDIASNEKLLGLLNHMSKVLKDIDFIKDDRPMIVRKINHIFKKATLSEEEINILRGVLSAIENHS | -1.46
HMNKEKLLEMFESMSIIIVQSLEEKEQTEDRIETELFNEAKTPRYSTLTKQDIQSVIRNILITVGV | -1.76
HMNKELVVPDLTDMRVKDAEFEAHQVGMRTEIVDSVYVRRLKRGYVYKQNPVPGSKVKKGRRIALTINAV | 0.212
HMNKETYIDALERKLWDRLDPDQLRDIISYYKDYFAMEAAKGISEEETIRKLGDPALLAKSILAAE | -0.332
HMNKEVDLPNFVGMTKENAQAQADKIKIKLEFEEEYSSDVEEGKIISQNPEYKENYKIKEKSTVSLKI | 0.312
HMNKFKVNERVRVIATGEIGIVKGREILPVEGSKRVNIEYLVKVGNGFSNWKAFSKKELEPVR | -1.88
HMNKFRVGDEVEIVKLDKTIQHFGGEEVLSPVGTKTYITYVDVTGKEIEIDKDIYSYHADDLTLV | ≥ 1.04
HMNKKLEMKIEQLDLSVRLFNSLKRSGIYTVAQIIKLTEEDVMRFRSLGRKSFKELKEKLSEHGLEFE | -2.14
HMNKLKALREEQGLSMMEIAKQLNMPYTTYVNYEKGTREPNSEMLIKFSKFFNVTIDYLIGNSEQKN | -2.48
HMNKNLQLMINEIKKGLASEDIETRKKSVLMLSRIDAPEIIQVLEPLKDDSSEEIRKISSKIISVLSKKYT | -0.108
HMNKNQGVTTTNLNFRKSASTSSLVLYTIPKNTTLDILDKLPSGWYKVKYKGLTGYVSGSYV | -2.99
HMNKPTFNIFNNRLTFPFKGDITIYSLDGKRVFSAYNESSVNLSFLNRGSYISEFNNSRSVLIL | -1.34
HMNKRKQRINDLMDLIREQPALSIKNLAEMLNVSEMTIRRDMAYLKSNNLLNRAHGMNFLNS | -0.407
HMNKSEFLNELEKRIRVLEKNEIKDILAEYSQHIDMRMGSGLSEAEAIKDFGDMDDLAAEILEAY | -0.277
HMNKVDEEKNAELVSTIQNKFSDVSAATKKKVKAFMAEHDIPNFKNADEIPTANLEAIVAMLNED | 0.255
HMNKYNNIEDLKEEDFENISEKYQVPVSFVKSKLDDLINWHEKNPQKNHYKNYLSALRDWVKRDSLKIKL | -0.132
HMNLDELGNRIREQRIKQRLKQQDIANALMLSAQAVSKWERGENAPDISVLPDLVKILGVSVDWLLTGP | -0.949
HMNLDPHVVGHRLRDLRTRRDLTLADVAAETDISVSTLSRLESGSRRATLELLVPLARTYRVTLDELVDA | -1.15

Sequence | soluble fraction (log2)
HMNLDPIKRKSEILSLFESHKNVKFNEIFFEKVNKEFTVLTFLIILELVKDNIIDFSQTQEGLIEFFTR | -0.00641
HMNLDVPGIIKRAKQALNLKRDSELAEFLGVSRATVTNWAARNSIDFRLLLDKLGNTVDYNWLLLGKGNPK | -1.11
HMNLDYKQFQVFNNIETLNTFTNLLSDNKIDFEVENNSKIFDPSFANNDFEKEYIVKIHPNDFEKVY | 0.0557
HMNLEIGAIIKSLRAKHKYTQEQLSAFLGVTPQAVSRWEAGNGYPDIELLPAIARFFEVSTDELLGL | -2.2
HMNLGDLYVIMEIAGQRDDVSARLMNREGQTFLVKTGTKLKSGDVVKEITPTYIKTDHDGEEAFLYF | -0.78
HMNLGETIYNLRKEKKLSQGDLAEQLSVSRQSVSKWENNSAVPDLDKLVKLSTIFGVSLDELVKG | -0.0337
HMNLGLTGDPSVLYSILLQRGDSSRADLQRQTGWSLSKTTLVLNQLLAQKLIVQVGAGRSTQYRVIN | -2.78
HMNLGNLAYESKVTKQVLNMIRPLHPEYSSDDITRAVKEILSEEGSRQRRVDEIARGALDVLMGNPR | 0.0661
HMNLLQAHLLRLESAALLAEVREVDRQLSRWLHPLTPQSDVAIIDERNWEAAVARLTELGVHIEEGRW | -3.05
HMNLNIGNNIKNIRKSKNMTQTDFAELMGLSRSYIGDLENNRSNPSIKTLEAIARALDVPIVALIN | -0.528
HMNLSSETLSEMEARIGQMGVVELQDRRAYLLQEQEGTQNPSRLKEIADELSAIQKALVALV | 0.705
HMNLTEIGQRIRDRREELGLSQDRLAKLGGLPRVTINQLETGSIGDLGVSKLLNLLDLLGLTLDA | -0.559
HMNLTLMDALKAAGLPVDGINLSMVNKMMEEQMPIDKTSLNQMYQLVQDNKDINVTTLVELKRLG | 0.0398
HMNLTSNDAYSRILNAIITSELRPGDTVTEIQLAQKFGFGRTPVREAIMRLENEGFIVSAERKKRVYIL | -2.97
HMNLTSSDIQKILSYALLADNSITLNSIEESMASLKLKKMSAEQLIELLEVSSMVLRNTNNSWSIL | -2.28
HMNMENIADKIGKIYESLPEDLKLMIKYRDIDDLTYDEIAVKADLPVGTVRSRLHRAREQLLKELEKN | -0.233
HMNMEPNWLKWAKQLAALAQNGLTYSDNPYEIERYEHIRRIAAEMMAEGFELDTKTILELFPREKG | -2.68
HMNMFDMRKTGARISQLRRAAGLTQAELAEKLGISYQAVSSWERGSNMPDIGKLLDLARILNTTVDALLSA | -1.19
HMNMGKRFKELRKERKFTQQQLADRIGLAPSAISSYESGARYPSYDVLIKYSKIFHVTTDYLLG | -2.79
HMNMKVGPVPANVVPANIKAHVSNNYSKYQIVQMMQNDKGYQVKLSNGTDLYYDKDGNILKTS | 0.0129
HMNMSVGAALRRRRNELGMTLRELADEAELTSGFLSQVENDRVSPSLKSLGRIAEVLRIPLFQLLS | -1.72
HMNMSVVEKVIQQISNPGRDSLIPILQAVQEEEGFISRESVIEIGKALDLPASKIYGVATFYNQFR | -0.206
HMNMTDVLVVNQTVRGGTQITESMLSVKKVDKSSLPDNYLKASLKDEVVGKYFDLGLTSGGVLTKDNISVS | -0.154
HMNMVSGHLQIKKGYYYVVLSYYDNRNKRHVKYVSTGLPEKGNKRKAEAALARVRSEFEPPQE | -3.95
HMNNDFIVKSTDSHKVNLRSQPDTHADIIKRLDDHTIVEKLKTVRKNWYLVQLKDTTTQGYVHKSQLERV | -0.357
HMNNDFVERLRKLFGHASMAEIARRIDVPHATIRNYFQGRLPAPEVLIKLARETGVSLNWLLTGEGKMFA | -1.19

Sequence | soluble fraction (log2)
HMNNENELSSIISKVLEENPAEKERFLNGEKKLAGFFMGKIMKATKGTADPKKAAQLLNEIL | 0.311
HMNNFNVVVGKAIKNSFNTRENYITINAGKVLGIKTDMGVINDKGIVGIVEKTSKDFATIQSVLNIKS | 0.177
HMNNGTDGLTTRLRRAILAGQYTFKERLPSERQLAEHFNTSRGTVRKVLQRLTTMNLVEQRAGSGTYVRYG | -0.302
HMNNIGSKIKSAKILNNLDDNQLSEITGIDKLQLRSIQDGQVNPTKMELEIISKALKLPTNYFTK | -0.115
HMNNIIYLIANKLDVGKRLDQFITIRTEFSRQRVINLIEDGYVKLNNKIINLKKYKIKGDEKIEITIPEIR | -1.32
HMNNKVAVKSGYYFEIFNKEEIPTTLAKTKQKVKINNIQYDLYQGMSLDDERKIDDMFGDRMGYSIDDY | -1.07
HMNNKVAVKSGYYFELFDKDEIPATLEKMKQKVKIDNIKYDLYQGTSLEDERKIDTMFGEKMGYSIDDYI | -0.0968
HMNNLVTRREVEILGWIKEGKTTSDIAGILSLSPFTVKNHVQNILKKLGARSRSHAVAQAINLGLLH | -1.4
HMNNPISMQKLRQVIRLYGQGKGTKSINSMLGVSRNTIKKYLQVYHSSGINYESFLAMSDKELSAVFLV | -0.509
HMNNQVTFSKFLNEVEDGRVVEVNIQGNNITGVLSDGSKFKTFSPNYPNLVEKLSEKGVSINASPL | 0.0934
HMNNTIKFSVDENNSGKRLDVYLTENINHLTRSFLKKLIEKEQVKLNKKVLTSPATKVKTKDQITINIIE | 0.0625
HMNNWYESSIKSLVEEYFREHGFSVVFDSSEFWDVFIEKYHKQIPSSQIALFDQVAAEARSYAFNKK | -0.0798
HMNPETLTNGSVVKMSKANLSDELIIDMINNSPARFDLSSGALRSLEGEGVSKAVIESMKRATSG | 0.283
HMNPETLTNSSVIKMSKANLSDELITDMILNSPVKFDLSAGAIKTLESEGVTPAVLESMKNAASK | 0.131
HMNPFTHEEINLMSIYNAAGTREGLIAALTEMWGYLDAEETELRELADSALAKLRGITDAEYAALELE | -1.19
HMNPGAYQVKAGEGLIGLSRRYNVPVDVLASVNNLNTTSSLRVGQTITIPTAAQVNRITQQAQ | 0.216
HMNPGHAERGKEIVEVFLRNNGELSMREIAEKSNITITQARRRVNKLLDQGIVEATAPVQSRNRKYRIK | 0.186
HMNPIEAQIEELKNKDQKTAYQALKHLLAISETRAEVSYYFDRFVALLQDPQSYVRTRGLLLIGA | 0.584
HMNPLLSAYLAEVERGLQGLTAGRRRLVLRELEAHLLDEAEARGLLTEEDMRALLMEKEPPERLAQEIAQ | -0.253
HMNPMLEPAGEIRLSDGVLLRWQSERLPGDDTVRGPGSLYELGLYRVKVRVSAPQQGVRESSVELAGWRQV | -0.0501
HMNPMRYLVVPSQETETWKEYLVSKEWLERKYRIETEGDNRAIPLSNLFPKIVPIELSNLEIIEKEAFS | -0.694
HMNPNEVQIPDLVNKTEDEAEQILKDLKLKLVVKSEEYNENIEKGKIISQDPPYQENYTIKEHSEISIVIS | 0.335
HMNPSRPASKEELLGLFEHLERALDAVTFFRPAEKKPVVVQTLRAMLTKASFTEQDIRTMRGVIAALEN | -1.59
HMNPYQDSILLWKSFDTPLTNEDFMGLSKEELRIARNEIYAAYGRIFTSQDLIDYFNSKPWYQGTTPA | -0.313
HMNQDQDLSRIKGIGPEMVDRLHAQGVETLEQIAAMQMEQLKKLDQQISGNGKAVREQWAEQAKQLLTT | 0.099
